From patent US20190204338A1, “Methods for the Characterisation of Interaction Sites on Target Proteins” (Phylogica Limited, priority 2012, published 2019)

Columns and labels:
Notch = assay: Heterologous reporter construct specificity test (Notch); type: cell-based; details: data not shown
Excerpt: (§1) Transfection of these Phylomers was not generally cytotoxic as assessed by cell viability using the Cell Titre Blue system (Promega) (data not shown). To initially assess their specificity for AP1 inhibition, we tested these hits against two heterologous reporter constructs designed to detect the activation of two distinct transcription factors, namely Notch and FOXO class Forkhead.

FOXO class Forkhead = assay: Heterologous reporter construct specificity test (FOXO class Forkhead); type: cell-based; details: data not shown
Excerpt: as §1

B1: 4G9: AP1-inhibitory Phylomer, SEQ ID NO: 6 (LKHRDYWVPL LYFFFVLITM ...), identified by phenotypic screening (protein)
chain: LKHRDYWVPLLYFFFVLITMFWDLYCHSGQYLYEARSLLPFYLFPFLIAALRIGDIVVDTRCRNVENLGGFERSAESSRYVQLSLYERQWFRLRYRAYGGNLRCLAGDLVENWRLWKEVNSKAAKDIDGAVMLRFFLPPRDLARLVTLLAALIAVIATLIITLAIV
modifications: Protein fragment of unknown organism
**Q.** B1 was tested. Which “Effect on Notch reporter construct” value (Notch) did it give?
**A.** generally inhibited all reporter constructs

**Q.** And the “Effect on FOXO class Forkhead reporter construct” value (FOXO class Forkhead)?
**A.** generally inhibited all reporter constructs
